# Assay results from article doi:10.1101/2025.09.12.675771 (bioRxiv, 2025).
# Residue numbers refer to the chain shown, from its start. Names may count otherwise.
# B1: D1 (antibody, V domains shown)
# VH: not shown
# VL: DIQMTQSPSTLSASVGDRVTITCKASQDVNTAVAWYQQKPGKAPKLLIYWASTLHTGVPSRFSGSGSGTEFTLTISSLQPDDFATYYCQHYYTDPWTFGQGTKVEIK
# B2: R1-32-Q61E-WT (antibody, V domains shown)
# VH: EVQLVQSGAEVKKPGSSVKVSCKASGGTFSSYFISWVRQAPGQGLEWMGGIIPILGIADYAEKFQGRVTITADKSTSTAYMELSSLRSEDTAVYYCARENGYSGYGAAYNFDLWGRGTLVTVSS
# VL: QSVLTQPPSVSGAPGQRVTISCTGSDSNIGAGYDVHWYQQLPGTAPKLLIYGNSNRPSGVPDRFSGSKSGTSASLAITGLQAEDEADYYCQSYDSSLSGSVFGGGTKLTVL
# B3: D2 (antibody, V domains shown)
# VH: not shown
# VL: DIQMTQSPSTLSASVGDRVTITCRASQDVSSYLAWYQQKPGKAPKLLIYAASFLQSGVPSRFSGSGSGTEFTLTISSLQPDDFATYYCQQHYSTPPTFGQGTKVEIK
# B4: D4 (antibody, V domains shown)
# VH: EVQLLESGGGLVQPGGSLRLSCAASGFTFSNYAMSWVRQAPGKGLEWVSAISSGGGYTYYADSVKGRFTISRDNSKNTLYLQMNSLRAEDTAVYYCAKDHDYAYYAFDYWGQGTLVTVSS
# VL: B3 VL with D28S, V29I, S31N, Y32W, A50W, F53T, Q55E, H91Y, Y92A, P96L
# B5: D3 (antibody, V domains shown)
# VH: not shown
# VL: DIQMTQSPSTLSASVGDRVTITCRASQTIGTWLAWYQQKPGKAPKLLIYTATSLADGVPSRFSGSGSGTEFTLTISSLQPDDFATYYCQQVSSNPRTFGQGTKVEIK
# B6: Human-1 (antibody, V domains shown)
# VH: QVQLKESGPGLVKPSQTLSLTCTVSGFSLINYAISWIRQPPGKGLEWIGVIWTGGGTNYNSALKSRLTISKDTSKNQVSLKLSSVTAADTAVYYCARKDYYGRYYGMDYWGQGTTVTVSS
# VL: QAVVTQEPSFTVSPGGTVTLTCRSSTGAVTTSNYANWYQQTPGQLFTGLIGGTNNRAPGVPDRFSGSLLGDKAALTITGAQADDEAIYYCALWYNNHWVFGGGTKLTVL
# B7: Human-5 (antibody, V domains shown)
# VH: QVQLQESGPGLVKPSETLSLTCTVSGFSLINYAISWVRQPPGKGLEWLGVIWTGGGTNYNSALKSRLTISKDNSKNTVYLKMNSLKTEDTARYYCARKDYYGRYYGMDYWGQGTLVTVSS
# VL: B6 VL with T11S, Y38V, Q40E, L45A, T47R, D71N, A86S
# Tests used:
# [1] = target: Programmed death-ligand 1 (PD-L1) (Homo sapiens (assumed), UniProt Q9NZQ7); test: SPR; format and conditions not told; settings: both partners purified
# [2] = target: SARS-CoV-2 RBD (residues 332-527), wild type (SARS-CoV-2, wild type (Wuhan-Hu-1), UniProt P0DTC2)
# RBD of COVID-19 = RBD of COVID-19 (SARS-CoV-2, wild type (Wuhan-Hu-1) …, UniProt P0DTC2)
# Programmed death-ligand 1 (PD-L1), sequence (Q9NZQ7 19-290): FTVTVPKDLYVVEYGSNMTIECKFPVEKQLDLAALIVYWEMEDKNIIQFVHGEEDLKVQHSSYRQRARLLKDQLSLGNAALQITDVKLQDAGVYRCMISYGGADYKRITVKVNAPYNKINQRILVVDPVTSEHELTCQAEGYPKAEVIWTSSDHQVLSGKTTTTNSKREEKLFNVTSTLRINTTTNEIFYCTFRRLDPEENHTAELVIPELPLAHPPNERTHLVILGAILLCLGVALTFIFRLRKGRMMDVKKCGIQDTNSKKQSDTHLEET
binder,measurement,setting,value
B1,Kd,[1],0.084 nM
B2,binding result,[2],binds
B3,binding result,[1],binds
B4,binding result,[1],binds
B5,binding result,[1],binds
B6,Kd,RBD of COVID-19,0.171 nM
B7,Kd,RBD of COVID-19,0.139 nM
